Results: publication PMC12102759 (2025)

B1: SH3BP2 peptide 408-423 (SH3 domain-binding protein 2), 16-mer library wild type / TNKS ANK (TNKS 12 ANK repeats, residues 174-649) (parent complex)
chain 1: PQLPHLQRSPPDGQSF
chain 2: TGVPAVSGALRELLEACRNGDVSRVKRLVDAANVNAKDMAGRKSSPLHFAAGFGRKDVVEHLLQMGANVHARDDGGLIPLHNACSFGHAEVVSLLLCQGADPNARDNWNYTPLHEAAIKGKIDVCIVLLQHGADPNIRNTDGKSALDLADPSAKAVLTGEYKKDELLEAARSGNEEKLMALLTPLNVNCHASDGRKSTPLHLAAGYNRVRIVQLLLQHGADVHAKDKGGLVPLHNACSYGHYEVTELLLKHGACVNAMDLWQFTPLHEAASKNRVEVCSLLLSHGADPTLVNCHGKSAVDMAPTPELRERLTYEFKGHSLLQAAREADLAKVKKTLALEIINFKQPQSHETALHCAVASLHPKRKQVTELLLRKGANVNEKNKDFMTPLHVAAERAHNDVMEVLHKHGAKMNALDTLGQTALHRAALAGHLQTCRLLLSYGSDPSIISLQGFTAAQMGNEAVQQILSESTPIRTSD

Variants of: B1
Test: proteomic peptide phage display deep mutational scan (ProP-PD DMS): M13 P8 16-mer library selected against immobilised GST-tagged bait for four days (rounds), NGS of the eluted pools per day and pseudo-replica; bait immobilised on MaxiSorp plates (10 µg), library pre-cleared on GST, 2 h binding at 4 °C, five washes; one round per day, days 1-4; value from days 2 and 3

Variant | screen value
chain 1 PQLPTLQRSPPDGQSF [chain 1 H5T] | 0.000644 average fractional NGS count over selection days 2 and 3 (reads of this peptide / all reads for the bait, averaged over …
chain 1 PQLPHLFRSPPDGQSF [chain 1 Q7F] | 0.00823 average fractional NGS count over selection days 2 and 3 (reads of this peptide / all reads for the bait, averaged over …
chain 1 PQLPILQRSPPDGQSF [chain 1 H5I] | 0.000472 average fractional NGS count over selection days 2 and 3 (reads of this peptide / all reads for the bait, averaged over …
chain 1 PQLPHAQRSPPDGQSF [chain 1 L6A] | 0.00118 average fractional NGS count over selection days 2 and 3 (reads of this peptide / all reads for the bait, averaged over …
chain 1 PQLPHLVRSPPDGQSF [chain 1 Q7V] | 0.00169 average fractional NGS count over selection days 2 and 3 (reads of this peptide / all reads for the bait, averaged over …
chain 1 PQLPHLQRSPPDGFSF [chain 1 Q14F] | 0.000219 average fractional NGS count over selection days 2 and 3 (reads of this peptide / all reads for the bait, averaged over …
chain 1 PQLPHLQRSPPAGQSF [chain 1 D12A] | 0.000288 average fractional NGS count over selection days 2 and 3 (reads of this peptide / all reads for the bait, averaged over …
chain 1 PQLPHLHRSPPDGQSF [chain 1 Q7H] | 0.00147 average fractional NGS count over selection days 2 and 3 (reads of this peptide / all reads for the bait, averaged over …
chain 1 PQLPHLMRSPPDGQSF [chain 1 Q7M] | 0.00158 average fractional NGS count over selection days 2 and 3 (reads of this peptide / all reads for the bait, averaged over …
chain 1 PHLPHLQRSPPDGQSF [chain 1 Q2H] | 0.000483 average fractional NGS count over selection days 2 and 3 (reads of this peptide / all reads for the bait, averaged over …
chain 1 PQLPHLQRSPPDGTSF [chain 1 Q14T] | 0.00291 average fractional NGS count over selection days 2 and 3 (reads of this peptide / all reads for the bait, averaged over …
chain 1 PQLPHLQRSPPDGQRF [chain 1 S15R] | 0.000309 average fractional NGS count over selection days 2 and 3 (reads of this peptide / all reads for the bait, averaged over …
chain 1 PQLPHEQRSPPDGQSF [chain 1 L6E] | 0.00197 average fractional NGS count over selection days 2 and 3 (reads of this peptide / all reads for the bait, averaged over …
chain 1 PQLPPLQRSPPDGQSF [chain 1 H5P] | 0.000222 average fractional NGS count over selection days 2 and 3 (reads of this peptide / all reads for the bait, averaged over …
chain 1 PQLPHLQRSPPDGQSA [chain 1 F16A] | 0.00179 average fractional NGS count over selection days 2 and 3 (reads of this peptide / all reads for the bait, averaged over …
chain 1 PQLPHLQRSPPDGQSD [chain 1 F16D] | 0.000232 average fractional NGS count over selection days 2 and 3 (reads of this peptide / all reads for the bait, averaged over …
chain 1 PQLPHLQRSPADGQSF [chain 1 P11A] | 0.000639 average fractional NGS count over selection days 2 and 3 (reads of this peptide / all reads for the bait, averaged over …
chain 1 PQLPHLQRLPPDGQSF [chain 1 S9L] | 0.00406 average fractional NGS count over selection days 2 and 3 (reads of this peptide / all reads for the bait, averaged over …
chain 1 PQLPHLQRSPPDGLSF [chain 1 Q14L] | 0.000462 average fractional NGS count over selection days 2 and 3 (reads of this peptide / all reads for the bait, averaged over …

Variant | screen value
chain 1 PQLPYLQRSPPDGQSF [chain 1 H5Y] | 0.000149 average fractional NGS count over selection days 2 and 3 (reads of this peptide / all reads for the bait, averaged over …
chain 1 PQLPHLQRSPPDGQQF [chain 1 S15Q] | 0.000297 average fractional NGS count over selection days 2 and 3 (reads of this peptide / all reads for the bait, averaged over …
chain 1 PQLPHLQRSPPDGQSE [chain 1 F16E] | 0.000221 average fractional NGS count over selection days 2 and 3 (reads of this peptide / all reads for the bait, averaged over …
chain 1 PQLPHDQRSPPDGQSF [chain 1 L6D] | 0.00436 average fractional NGS count over selection days 2 and 3 (reads of this peptide / all reads for the bait, averaged over …
chain 1 PQLPHLQRNPPDGQSF [chain 1 S9N] | 0.000282 average fractional NGS count over selection days 2 and 3 (reads of this peptide / all reads for the bait, averaged over …
chain 1 PQLPHLQRSLPDGQSF [chain 1 P10L] | 0.00106 average fractional NGS count over selection days 2 and 3 (reads of this peptide / all reads for the bait, averaged over …
chain 1 PQLPHLQRSPPDGHSF [chain 1 Q14H] | 0.00138 average fractional NGS count over selection days 2 and 3 (reads of this peptide / all reads for the bait, averaged over …
chain 1 PQLPHLQRSPPDGQSM [chain 1 F16M] | 0.00196 average fractional NGS count over selection days 2 and 3 (reads of this peptide / all reads for the bait, averaged over …
chain 1 PQKPHLQRSPPDGQSF [chain 1 L3K] | 0.000138 average fractional NGS count over selection days 2 and 3 (reads of this peptide / all reads for the bait, averaged over …
chain 1 PQLPHLQRQPPDGQSF [chain 1 S9Q] | 0.00451 average fractional NGS count over selection days 2 and 3 (reads of this peptide / all reads for the bait, averaged over …
chain 1 PQLPHLQRSFPDGQSF [chain 1 P10F] | 0.000203 average fractional NGS count over selection days 2 and 3 (reads of this peptide / all reads for the bait, averaged over …
chain 1 PQLPHLQRSPPDGQSQ [chain 1 F16Q] | 0.000905 average fractional NGS count over selection days 2 and 3 (reads of this peptide / all reads for the bait, averaged over …
chain 1 PQLPHSQRSPPDGQSF [chain 1 L6S] | 0.000251 average fractional NGS count over selection days 2 and 3 (reads of this peptide / all reads for the bait, averaged over …
chain 1 PQLPHHQRSPPDGQSF [chain 1 L6H] | 0.000142 average fractional NGS count over selection days 2 and 3 (reads of this peptide / all reads for the bait, averaged over …
chain 1 PQLPHLQRSPPDGNSF [chain 1 Q14N] | 0.000561 average fractional NGS count over selection days 2 and 3 (reads of this peptide / all reads for the bait, averaged over …
chain 1 PQLPHLSRSPPDGQSF [chain 1 Q7S] | 0.000276 average fractional NGS count over selection days 2 and 3 (reads of this peptide / all reads for the bait, averaged over …
chain 1 PQLPHLQESPPDGQSF [chain 1 R8E] | 0.000101 average fractional NGS count over selection days 2 and 3 (reads of this peptide / all reads for the bait, averaged over …
chain 1 PQLNHLQRSPPDGQSF [chain 1 P4N] | 0.000673 average fractional NGS count over selection days 2 and 3 (reads of this peptide / all reads for the bait, averaged over …
chain 1 PQLPHLQRSPPLGQSF [chain 1 D12L] | 0.000574 average fractional NGS count over selection days 2 and 3 (reads of this peptide / all reads for the bait, averaged over …

Variant | screen value
chain 1 PQLPHLQRSPPDGKSF [chain 1 Q14K] | 0.00049 average fractional NGS count over selection days 2 and 3 (reads of this peptide / all reads for the bait, averaged over …
chain 1 PQHPHLQRSPPDGQSF [chain 1 L3H] | 0.000462 average fractional NGS count over selection days 2 and 3 (reads of this peptide / all reads for the bait, averaged over …
chain 1 PQLPHLQRYPPDGQSF [chain 1 S9Y] | 0.000793 average fractional NGS count over selection days 2 and 3 (reads of this peptide / all reads for the bait, averaged over …
chain 1 PQLPHGQRSPPDGQSF [chain 1 L6G] | 0.000481 average fractional NGS count over selection days 2 and 3 (reads of this peptide / all reads for the bait, averaged over …
chain 1 PQLYHLQRSPPDGQSF [chain 1 P4Y] | 0.000273 average fractional NGS count over selection days 2 and 3 (reads of this peptide / all reads for the bait, averaged over …
chain 1 PVLPHLQRSPPDGQSF [chain 1 Q2V] | 0.000821 average fractional NGS count over selection days 2 and 3 (reads of this peptide / all reads for the bait, averaged over …
chain 1 PQFPHLQRSPPDGQSF [chain 1 L3F] | 0.000552 average fractional NGS count over selection days 2 and 3 (reads of this peptide / all reads for the bait, averaged over …
chain 1 PQLTHLQRSPPDGQSF [chain 1 P4T] | 0.000173 average fractional NGS count over selection days 2 and 3 (reads of this peptide / all reads for the bait, averaged over …
chain 1 PILPHLQRSPPDGQSF [chain 1 Q2I] | 0.000434 average fractional NGS count over selection days 2 and 3 (reads of this peptide / all reads for the bait, averaged over …
chain 1 PQLPHLQRSPPDGASF [chain 1 Q14A] | 0.00095 average fractional NGS count over selection days 2 and 3 (reads of this peptide / all reads for the bait, averaged over …
chain 1 PQLPHLQRHPPDGQSF [chain 1 S9H] | 0.00219 average fractional NGS count over selection days 2 and 3 (reads of this peptide / all reads for the bait, averaged over …
chain 1 PQLGHLQRSPPDGQSF [chain 1 P4G] | 0.000551 average fractional NGS count over selection days 2 and 3 (reads of this peptide / all reads for the bait, averaged over …
chain 1 PQQPHLQRSPPDGQSF [chain 1 L3Q] | 0.000641 average fractional NGS count over selection days 2 and 3 (reads of this peptide / all reads for the bait, averaged over …
chain 1 PQYPHLQRSPPDGQSF [chain 1 L3Y] | 0.000217 average fractional NGS count over selection days 2 and 3 (reads of this peptide / all reads for the bait, averaged over …
chain 1 PYLPHLQRSPPDGQSF [chain 1 Q2Y] | 0.000238 average fractional NGS count over selection days 2 and 3 (reads of this peptide / all reads for the bait, averaged over …
chain 1 PQLPHLQRSPPVGQSF [chain 1 D12V] | 0.000643 average fractional NGS count over selection days 2 and 3 (reads of this peptide / all reads for the bait, averaged over …
chain 1 PQLPHLQRDPPDGQSF [chain 1 S9D] | 0.00106 average fractional NGS count over selection days 2 and 3 (reads of this peptide / all reads for the bait, averaged over …
chain 1 PQLPHLQRSAPDGQSF [chain 1 P10A] | 0.000707 average fractional NGS count over selection days 2 and 3 (reads of this peptide / all reads for the bait, averaged over …
